Measurements published in article PMC7762974, “Recombination and Pol ζ Rescue Defective DNA Replication upon Impaired CMG Helicase—Pol ε Interaction” (International Journal of Molecular Sciences, 2020).

How the values were obtained:
Assay in all cases: pull-down; 2 pmol Halo-Sld5 GINS fixed on 10 µL HaloLink Resin, blocked with casein and BSA; 2 pmol Pol ε with 2 mg/mL BSA in 400 µL 25 mM HEPES-KOH pH 7.6, 200 mM K-acetate, 2 mM Mg-acetate, 10% glycerol, 0.1% Tween 20, 0.01% NP-40, 30 °C for 30 min; blot for Dpb2 and Psf2, band intensity compared to Psf1
[1] = target: GINS complex with the Psf1-1 mutant subunit (R84G), Psf2, Psf3, Halotag-Sld5 (S. cerevisiae) (UniProt Q12488)
[2] = target: GINS complex with the Psf1-100 mutant subunit (V161A, F162A, I163A, D164A), Psf2, Psf3, Halotag-Sld5 (S. cerevisiae) (UniProt Q12488)
[3] = target: T1, DNA polymerase epsilon (Pol ε) comprising Pol2, Dpb2, Dpb3 and Dpb4 subunits (S. cerevisiae, UniProt P21951 1-2222; P24482 1-689; P27344 1-201; Q04603 1-196); settings: both partners purified
T1 construct: Pol2, catalytic subunit of DNA polymerase epsilon, S. cerevisiae; Dpb2, noncatalytic subunit of DNA polymerase epsilon, S. cerevisiae; Dpb3, noncatalytic subunit of DNA polymerase epsilon, S. cerevisiae; Dpb4, noncatalytic subunit of DNA polymerase epsilon, S. cerevisiae; source: purified as described previously [40]; copies: + + +
T1 sequence (P21951 whole entry, chain 1 of 4): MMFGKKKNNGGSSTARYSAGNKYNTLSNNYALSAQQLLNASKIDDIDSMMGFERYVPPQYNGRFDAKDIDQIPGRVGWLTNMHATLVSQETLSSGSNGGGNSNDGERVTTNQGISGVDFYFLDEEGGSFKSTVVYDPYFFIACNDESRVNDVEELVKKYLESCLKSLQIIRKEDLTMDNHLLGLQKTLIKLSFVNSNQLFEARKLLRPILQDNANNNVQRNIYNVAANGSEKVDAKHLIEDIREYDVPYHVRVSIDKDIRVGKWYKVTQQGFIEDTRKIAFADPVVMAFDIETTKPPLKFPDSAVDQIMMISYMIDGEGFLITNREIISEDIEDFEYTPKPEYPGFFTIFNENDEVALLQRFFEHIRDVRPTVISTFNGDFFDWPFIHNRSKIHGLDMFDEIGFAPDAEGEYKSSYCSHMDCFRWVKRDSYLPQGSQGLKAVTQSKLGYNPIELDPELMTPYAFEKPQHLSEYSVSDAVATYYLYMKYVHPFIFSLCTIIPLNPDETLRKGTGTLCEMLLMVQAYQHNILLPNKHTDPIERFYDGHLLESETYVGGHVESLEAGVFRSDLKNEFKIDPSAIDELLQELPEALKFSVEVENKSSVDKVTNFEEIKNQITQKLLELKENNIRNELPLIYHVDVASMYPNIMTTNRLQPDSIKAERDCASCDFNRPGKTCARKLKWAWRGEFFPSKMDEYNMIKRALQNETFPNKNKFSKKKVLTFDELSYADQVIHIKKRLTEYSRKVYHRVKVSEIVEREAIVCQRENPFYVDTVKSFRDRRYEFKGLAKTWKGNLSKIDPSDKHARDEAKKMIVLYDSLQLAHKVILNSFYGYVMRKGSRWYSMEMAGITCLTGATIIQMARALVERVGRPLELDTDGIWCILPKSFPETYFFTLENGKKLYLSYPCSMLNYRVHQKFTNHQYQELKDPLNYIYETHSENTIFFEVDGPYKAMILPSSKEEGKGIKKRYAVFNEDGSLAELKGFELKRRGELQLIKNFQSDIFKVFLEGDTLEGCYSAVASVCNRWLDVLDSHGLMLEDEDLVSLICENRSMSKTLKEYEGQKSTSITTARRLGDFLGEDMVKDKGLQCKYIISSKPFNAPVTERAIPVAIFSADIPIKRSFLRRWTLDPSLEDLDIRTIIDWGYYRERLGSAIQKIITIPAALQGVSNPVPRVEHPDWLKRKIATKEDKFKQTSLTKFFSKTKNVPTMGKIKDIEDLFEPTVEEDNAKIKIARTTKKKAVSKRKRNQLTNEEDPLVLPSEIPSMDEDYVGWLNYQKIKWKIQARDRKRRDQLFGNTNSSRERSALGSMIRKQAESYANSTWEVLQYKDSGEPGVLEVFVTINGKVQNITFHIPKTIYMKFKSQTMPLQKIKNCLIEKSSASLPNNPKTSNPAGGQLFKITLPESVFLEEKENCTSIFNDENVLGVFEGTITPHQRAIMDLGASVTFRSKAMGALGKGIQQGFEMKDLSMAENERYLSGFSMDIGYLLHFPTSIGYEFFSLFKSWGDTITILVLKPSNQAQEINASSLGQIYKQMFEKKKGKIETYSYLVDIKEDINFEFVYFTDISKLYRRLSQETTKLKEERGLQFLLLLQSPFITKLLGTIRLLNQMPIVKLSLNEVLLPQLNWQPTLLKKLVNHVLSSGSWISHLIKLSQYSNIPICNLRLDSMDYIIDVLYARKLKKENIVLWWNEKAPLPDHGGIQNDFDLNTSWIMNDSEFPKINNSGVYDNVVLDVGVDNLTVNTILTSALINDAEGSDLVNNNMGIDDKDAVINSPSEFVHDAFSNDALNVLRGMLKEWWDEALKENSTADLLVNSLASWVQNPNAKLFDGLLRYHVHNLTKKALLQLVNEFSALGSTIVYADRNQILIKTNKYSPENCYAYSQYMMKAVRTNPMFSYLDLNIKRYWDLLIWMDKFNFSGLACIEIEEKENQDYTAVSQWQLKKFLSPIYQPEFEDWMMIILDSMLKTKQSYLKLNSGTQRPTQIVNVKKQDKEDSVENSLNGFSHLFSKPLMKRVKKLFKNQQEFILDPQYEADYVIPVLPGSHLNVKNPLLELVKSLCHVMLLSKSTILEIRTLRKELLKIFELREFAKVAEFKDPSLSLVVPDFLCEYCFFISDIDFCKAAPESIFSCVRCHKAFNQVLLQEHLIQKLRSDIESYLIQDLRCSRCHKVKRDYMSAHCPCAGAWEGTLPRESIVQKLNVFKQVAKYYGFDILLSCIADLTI
T1 sequence (P24482 whole entry, chain 2 of 4): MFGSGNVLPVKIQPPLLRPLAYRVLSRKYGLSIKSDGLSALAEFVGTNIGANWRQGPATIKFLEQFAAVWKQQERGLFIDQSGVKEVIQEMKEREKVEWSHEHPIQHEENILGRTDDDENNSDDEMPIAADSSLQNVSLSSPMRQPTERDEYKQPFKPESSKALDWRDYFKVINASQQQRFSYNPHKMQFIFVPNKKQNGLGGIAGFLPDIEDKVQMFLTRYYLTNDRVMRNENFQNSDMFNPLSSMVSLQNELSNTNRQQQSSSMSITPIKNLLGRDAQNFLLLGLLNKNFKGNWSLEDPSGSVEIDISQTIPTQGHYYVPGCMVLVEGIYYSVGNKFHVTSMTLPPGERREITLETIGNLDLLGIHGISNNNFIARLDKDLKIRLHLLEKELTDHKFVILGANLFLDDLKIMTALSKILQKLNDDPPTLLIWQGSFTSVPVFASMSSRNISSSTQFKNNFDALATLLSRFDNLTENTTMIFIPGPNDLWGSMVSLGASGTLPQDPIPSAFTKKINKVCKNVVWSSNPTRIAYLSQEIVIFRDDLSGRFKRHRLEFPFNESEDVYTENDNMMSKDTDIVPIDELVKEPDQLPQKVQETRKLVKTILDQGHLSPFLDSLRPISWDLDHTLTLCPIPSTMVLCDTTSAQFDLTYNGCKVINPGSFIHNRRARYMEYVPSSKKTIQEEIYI
T1 sequence (P27344 whole entry, chain 3 of 4): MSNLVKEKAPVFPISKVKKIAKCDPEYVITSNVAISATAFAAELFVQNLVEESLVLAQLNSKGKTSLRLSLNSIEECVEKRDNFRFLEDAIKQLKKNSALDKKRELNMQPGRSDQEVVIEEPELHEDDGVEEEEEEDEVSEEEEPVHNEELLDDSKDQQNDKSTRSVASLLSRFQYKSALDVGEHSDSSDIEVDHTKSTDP
T1 sequence (Q04603 whole entry, chain 4 of 4): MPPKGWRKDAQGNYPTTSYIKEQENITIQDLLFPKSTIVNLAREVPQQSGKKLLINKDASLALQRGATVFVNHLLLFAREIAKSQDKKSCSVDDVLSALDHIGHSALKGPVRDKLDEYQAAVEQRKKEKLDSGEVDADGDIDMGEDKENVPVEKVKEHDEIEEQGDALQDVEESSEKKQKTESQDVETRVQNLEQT

band intensity compared to Psf1 (relative to Psf1) [1]	band intensity compared to Psf1 (relative to Psf1) [2]	binding result [3]	Molecule
0.96	0.31		DNA polymerase epsilon (Pol ε) comprising Pol2, Dpb2, Dpb3 and Dpb4 subunits, P21951 1-2222; P24482 1-689; P27344 1-201; Q04603 1-196
		binds	GINS complex (Psf1, Psf2, Psf3, Halotag-Sld5), wild type (complex, S. cerevisiae, Psf1 subunit of GINS, S. cerevisiae; Psf2 subunit of GINS, S. cerevisiae; Psf3 subunit of GINS, S. cerevisiae; Sld5 subunit of GINS, S. cerevisiae; also called GINS_(Psf1); WT; source: purified as described previously [40]; copies: + + +) chain 1: MYGDLGNKLVLEAKRTKQLYARSNQDVNLPMYHEDIIRNILKEVSNLRKNTEYLKEQQQLGMLDDKVAKCQYFVTLLCMERNKRCLLAYQRLRTDILDSMAWNNNGLDLMSSITFSQQDTNNLSHQEQEYLKEYCDLITDLKSGDLVDIDLSGSLVPPSDVFIDVRVLKDAGEIQTEYGVFNLIKDSQFFVRQSDVERLIQQGYLQKI chain 2: MSLPAHLQQTFSPEEIQFIVENEPIKIFPRITTRQKIRGDDRGTGNHTRWQLITTDDKALNNMVAMRSTEVVLWIALLLKQQSKCSIVAPQWLTTKELDRKIQYEKTHPDRFSELPWNWLVLARILFNKAKDDFHDPIHELRGKIQDLREIRQIKVLKGLKYLNESHLQLDNLSLLEINELRPFITEIMDKLREIHTASLTAGTENDEEEFNI chain 3: MGYYDIDDVLADGTEFPCKFQYDIPGLGYLENNPGRPITKNTKLSLPLWLARILAIVGGDEALVDEEPVPFVELLPPDMFSTKVMNAIKTDPVALDLHSINSHFFSLAIKWIMLFSEKELANVVSELLLQRAQELNHHASSLSIDLNADSTGKNSANTNIATSTFLLKLEEMEKEIYKKSHESYKDTKRWMFKK chain 4: MDINIDDILAELDKETTAVDSTKITQGSSSTTHRDANTIVGSSLDLNDKTQIYVSPQQDFSDLMKSWKNERCSPELLPYPHQLMKRLLNRISMQSQLIENISMGFLDMQNASNANPPMPNESKLPLLCMETELERLKFVIRSYIRCRLSKIDKFSLYLRQLNEDENSLISLTDLLSKDEIKYHDTHSLIWLKLVNDSILKYMPEELQAINDTEGSVNMIDEPDWNKFVFIHVNGPPDGKWNEDPLLQENEFGKPCYTVTIPDLKEEVELTIGSIYVMRYEVIRDLLRDDKVALI
